Reference: patent US20090092600A1 (Dana-Farber, published 2009)

Target: T1, GST (glutathione-S-transferase) (UniProt P08515 1-218 = GST)
T1 construct: Control protein in the GST pull-down
Assay: GST pull-down on glutathione beads, immunoblot with anti-His or anti-MUC1-C
Experimental: The binding of MUC1 to HSF1 could be direct or indirect, for example, through a third protein. To determine if the interaction between MUC1 and HSF1 is a direct, physical interaction, in vitro binding assays was performed. GST- and GST-STAT3 polypeptides were incubated with purified His-tagged MUC1-CD (similar to GST-HSF1-His-MUC1 experiments described above). The protein mixtures were then incubated with glutathione beads, which bind to the GST proteins and associated binding partners if present. The glutathione bead adsorbates were washed and immunoblotted with antibodies specific for His tags or to MUC1-C (as described above). His-tagged MUC1 was present in GST-STAT3 adsorbates but not GST-adsorbates.

T1 sequence (P08515 whole entry): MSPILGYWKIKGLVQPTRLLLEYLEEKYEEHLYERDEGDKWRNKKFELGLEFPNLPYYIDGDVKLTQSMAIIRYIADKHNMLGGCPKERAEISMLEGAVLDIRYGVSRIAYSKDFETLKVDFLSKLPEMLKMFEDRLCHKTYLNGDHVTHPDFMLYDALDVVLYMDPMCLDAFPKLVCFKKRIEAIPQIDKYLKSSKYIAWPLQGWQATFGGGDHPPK

binding result: no binding
B1: His-tagged MUC1-CD (MUC1 cytoplasmic domain) (other)
chain: CQCRRKNYGQLDIFPARDTYHPMSEYPTYHTHGRYVPPSSTDRSPYEKVSAGNGGSSLSYTNPAVAAASANL
notes: Purified recombinant protein; also called His-MUC1; not shown: His tag
